According to article PMC6727212 (ACS Chemical Neuroscience, 2019):
Several values for one entry are separate records, joined by “and”; a condition that tells them apart may be missing. Equal entries are not always repeated.

Molecular target: the molecule itself
Assay: SEC; Superdex 75 (10 x 300 mm) on FPLC, room temperature, 0.5 mL/min, 500 uL of about 1 mg/mL protein; 10 mM phosphate, 0.15 M NaCl, pH 7.5 (legend and results; the methods say pH 7.0); equilibrium oligomeric state, stB wt as standard

Row | Protein | binding result
1 | human stefin B P74S (natural protein, UniProt P04080 1-98, looked up) MMSGAPSATQPATAETQHIADQVRSQLEEKENKKFPVFKAVSFKSQVVAGTNYFIKVHVGDEDFVHLRVFQSLSHENKPLTLSNYQTNKAKHDELTYF | binds

Molecular target: the molecule itself
Assay: as above
Remark: another data set of the same source

Row | Protein | stoichiometry N | binding result
2 | recombinant human stefin B wild-type (C3S) (natural protein, UniProt P04080 1-98, looked up) MMSGAPSATQPATAETQHIADQVRSQLEEKENKKFPVFKAVSFKSQVVAGTNYFIKVHVGDEDFVHLRVFQSLPHENKPLTLSNYQTNKAKHDELTYF | 2 | 
3 | human stefin B P11S P74S (natural protein, UniProt P04080 1-98, looked up) MMSGAPSATQSATAETQHIADQVRSQLEEKENKKFPVFKAVSFKSQVVAGTNYFIKVHVGDEDFVHLRVFQSLSHENKPLTLSNYQTNKAKHDELTYF | 2 | 
4 | human stefin B P74S P79S (natural protein, UniProt P04080 1-98, looked up) MMSGAPSATQPATAETQHIADQVRSQLEEKENKKFPVFKAVSFKSQVVAGTNYFIKVHVGDEDFVHLRVFQSLSHENKSLTLSNYQTNKAKHDELTYF | 2 | 
5 | human stefin B P6L (natural protein, UniProt P04080 1-98, looked up) MMSGALSATQPATAETQHIADQVRSQLEEKENKKFPVFKAVSFKSQVVAGTNYFIKVHVGDEDFVHLRVFQSLPHENKPLTLSNYQTNKAKHDELTYF |  | binds
6 | human stefin B P11S (natural protein, UniProt P04080 1-98, looked up) MMSGAPSATQSATAETQHIADQVRSQLEEKENKKFPVFKAVSFKSQVVAGTNYFIKVHVGDEDFVHLRVFQSLPHENKPLTLSNYQTNKAKHDELTYF |  | binds
7 | human stefin B P36D (natural protein, UniProt P04080 1-98, looked up) MMSGAPSATQPATAETQHIADQVRSQLEEKENKKFDVFKAVSFKSQVVAGTNYFIKVHVGDEDFVHLRVFQSLPHENKPLTLSNYQTNKAKHDELTYF |  | binds
8 | human stefin B P79S (natural protein, UniProt P04080 1-98, looked up) MMSGAPSATQPATAETQHIADQVRSQLEEKENKKFPVFKAVSFKSQVVAGTNYFIKVHVGDEDFVHLRVFQSLPHENKSLTLSNYQTNKAKHDELTYF | 2 and 4 | 
9 | human stefin B P6L P74S (natural protein, UniProt P04080 1-98, looked up) MMSGALSATQPATAETQHIADQVRSQLEEKENKKFPVFKAVSFKSQVVAGTNYFIKVHVGDEDFVHLRVFQSLSHENKPLTLSNYQTNKAKHDELTYF | 2 | 
